From patent KR20220116962A (dated 2022) come the findings set out here.

The target in assay [1] is T1, GPR87(N)-GST (인간 GPR87 N-말단 세포외부위 영역과 GST 융합 항원) (human).
T1 construct: also called GPR87-GST
The experiment in a line: ELISA, antigen coated, IgG titrated; apparent equilibrium dissociation constant.

The target in assay [2] is T2, GPR87(N)-Streptavidin (인간 GPR87 N-말단 세포외부위 영역과 STV 융합 항원) (human).
T2 construct: Purified on Ni-NTA, so a His tag is implied but not described; also called GPR87-STV
T2 chain: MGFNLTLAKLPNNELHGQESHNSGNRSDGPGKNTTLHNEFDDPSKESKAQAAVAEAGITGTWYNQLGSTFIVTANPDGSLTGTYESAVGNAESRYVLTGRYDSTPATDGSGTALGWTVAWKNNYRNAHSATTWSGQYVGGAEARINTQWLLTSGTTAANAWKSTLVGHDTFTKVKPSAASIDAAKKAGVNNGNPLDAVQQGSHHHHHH
Described as above.

Assay [3] has as its target T1, GPR87(N)-GST (인간 GPR87 N-말단 세포외부위 영역과 …). Nature of the assay: single-clone phage ELISA after 4 rounds of biopanning.
The target of assay [4] is T2, GPR87(N)-Streptavidin (인간 GPR87 N-말단 …). The description is as above.

B1: 단일클론항체 B1 (IgG) (antibody, V domains shown)
VH: EVQLVESGGGLVQPGRSLRLSCKASGFNFDEYALSWVRQAPGKGLEWVGFIRSKAYRETTEYAASVKGRCTISRDDSKSIAYLLMNSLRAEDTAVYYCARGHTPQRPYFDEWGQGTLVTVSS
VL: DIQMTQSPSFLSASVGDRITITCRASQSVGTYVNWYQQKLGKAPKLLIYTASTLQSGVPARFSGSGSGTEFTLTINGLQPEDFATYYCQQSYRPHFLTFGGGTQLTVLG
notes: also called B1 항체
In the case of B1, the results for the Kd in assay [1] and in assay [2] were 18.1 nM and 19.9 nM, respectively.

B2: 단일클론항체 A5 (IgG) (antibody, V domains shown)
VH: QVQLVQSGPGLVKPSETLSLTCSVSGGSMTSYYWSWVRQPPGKGLEWMGYVFHSGITNYSPSLKSRVTMSVDTSKNQFSLKLKSVTAVDTAVYYCAKKSGTSKKPIDYWGQGTTVTVSS
VL: DIVMTQSPSSLSASVGDRITITCRASQSVGTYVNWYQHKPGKAPKLLIYDASNLETGVPSRFSGSGSVTDFTLTITNLQPEDSATYYCLQHKNYPLTFGGGTKVEIKR
notes: also called A5 항체
On to B2, for which the Kd was found to be 13.3 nM in assay [1] and 14.7 nM in assay [2].

B3: A5 (scFv), phage-displayed clone (scFv)
scFv: QVQLVQSGPGLVKPSETLSLTCSVSGGSMTSYYWSWVRQPPGKGLEWMGYVFHSGITNYSPSLKSRVTMSVDTSKNQFSLKLKSVTAVDTAVYYCAKKSGTSKKPIDYWGQGTTVTVSSGGGSSGGGGSGGGGSGGGGSDIVMTQSPSSLSASVGDRITITCRASQSVGTYVNWYQHKPGKAPKLLIYDASNLETGVPSRFSGSGSVTDFTLTITNLQPEDSATYYCLQHKNYPLTFGGGTKVEIKR
As to B3, the binding result in assay [3] and in assay [4] was “binds” in each case.

B4: B1 (scFv), phage-displayed clone (scFv)
scFv: EVQLVESGGGLVQPGRSLRLSCKASGFNFDEYALSWVRQAPGKGLEWVGFIRSKAYRETTEYAASVKGRCTISRDDSKSIAYLLMNSLRAEDTAVYYCARGHTPQRPYFDEWGQGTLVTVSSGGGSSGGGGSGGGGSGGGGSDIQMTQSPSFLSASVGDRITITCRASQSVGTYVNWYQQKLGKAPKLLIYTASTLQSGVPARFSGSGSGTEFTLTINGLQPEDFATYYCQQSYRPHFLTFGGGTQLTVLG
With B4, the binding result in assay [3] and in assay [4] was “binds” each time.
